1 molecule from article PMC4263503 (Cell, 2014) can be followed below.

Read-outs that look alike come from different tables or passages of the source.

The target of assay [1] is T1, Human Tau, hTau40 (isoform F, the longest isoform of Tau) (human, UniProt P10636-8 1-441). Kind of assay: other fluorescence titration.
Assay [2] concerns the target T1, Human Tau, hTau40 (isoform F, the …). Kind of assay: other fluorescence titration. The source holds these as a separate data set.

B1: Human Hsp90β (natural protein)
chain: not shown
With B1, the Kd in assay [1] is 5.2 ± 3 µM; in assay [2], 4.8 ± 1 µM.

For orientation: Kd means the equilibrium constant for the complex coming apart. The low end stands for a tighter complex, the high end for a looser complex.
